B1: anti-NGF feline IgG1a, Fc variant S428L (antibody, part only; not given: Anti-NGF variable domains, not shown: another chain or arm of the molecule; small tags and cut ends)
Fc: PPEMLGGPSIFIFPPKPKDTLSISRTPEVTCLVVDLGPDDSDVQITWFVDNTQVYTAKTSPREEQFNSTYRVVSVLPILHQDWLKGKEFKCKVNSKSLPSPIERTISKAKGQPHEPQVYVLPPAQEELSRNKVSVTCLIKSFHPPDIAVEWEITGQPEPENNYRTTPPQLDSDGTYFVYSKLSVDRSHWQRGNTYTCSVLHEALHSHHTQKSLTQSPGK
B2: anti-NGF feline IgG1a, Fc variant T286E, S428H (antibody, part only; not given: Anti-NGF variable domains, not shown: another chain or arm of the molecule; small tags and cut ends)
Fc: B1 Fc with T56E, L200H
B3: anti-NGF feline IgG1a, Fc variant R334D (antibody, part only; not given: anti-NGF variable domains, light chain, not shown: another chain or arm of the molecule; small tags and cut ends)
Fc: B1 Fc with R104D, L200S
B4: anti-NGF feline IgG1a, Fc variant R334D, S428R (antibody, part only; not given: anti-NGF variable domains, light chain, not shown: another chain or arm of the molecule; small tags and cut ends)
Fc: B1 Fc with R104D, L200R
B5: anti-NGF feline IgG1a, Fc variant T286E (antibody, part only; not given: anti-NGF variable domains, light chain, not shown: another chain or arm of the molecule; small tags and cut ends)
Fc: B1 Fc with T56E, L200S
B6: anti-NGF feline IgG1a, Fc variant E293H (antibody, part only; not given: anti-NGF variable domains, light chain, not shown: another chain or arm of the molecule; small tags and cut ends)
Fc: B1 Fc with E63H, L200S
B7: anti-NGF feline IgG1a, Fc variant S428L, D312T (antibody, part only; not given: anti-NGF variable domains, not shown: another chain or arm of the molecule; small tags and cut ends)
Fc: B1 Fc with D82T
B8: anti-NGF feline IgG1a, Fc variant S254K (antibody, part only; not given: Anti-NGF variable domains, not shown: another chain or arm of the molecule; small tags and cut ends)
Fc: B1 Fc with S24K, L200S
B9: anti-NGF feline IgG1a, Fc variant L309E (antibody, part only; not given: anti-NGF variable domains, light chain, not shown: another chain or arm of the molecule; small tags and cut ends)
Fc: B1 Fc with L79E, L200S
B10: anti-NGF feline IgG1a, Fc variant S428H (antibody, part only; not given: anti-NGF variable domains, light chain, not shown: another chain or arm of the molecule; small tags and cut ends)
Fc: B1 Fc with L200H
B11: anti-NGF feline IgG1a, Fc variant T260E, L309E, Q355L (antibody, part only; not given: anti-NGF variable domains, not shown: another chain or arm of the molecule; small tags and cut ends)
Fc: B1 Fc with T30E, L79E, Q125L, L200S
B12: anti-NGF feline IgG1a, Fc variant E380T (antibody, part only; not given: anti-NGF variable domains, not shown: another chain or arm of the molecule; small tags and cut ends)
Fc: B1 Fc with E150T, L200S
B13: anti-NGF feline IgG1a, Fc variant L309V (antibody, part only; not given: anti-NGF variable domains, light chain, not shown: another chain or arm of the molecule; small tags and cut ends)
Fc: B1 Fc with L79V, L200S
B14: anti-NGF feline IgG1a, Fc variant S428L, N389c-R (antibody, part only; not given: anti-NGF variable domains, light chain, not shown: another chain or arm of the molecule; small tags and cut ends)
Fc: B1 Fc with N161R
B15: anti-NGF feline IgG1a, Fc variant Q347L (antibody, part only; not given: Anti-NGF variable domains, not shown: another chain or arm of the molecule; small tags and cut ends)
Fc: B1 Fc with Q117L, L200S
B16: anti-NGF feline IgG1a, Fc variant L309Y (antibody, part only; not given: anti-NGF variable domains, light chain, not shown: another chain or arm of the molecule; small tags and cut ends)
Fc: B1 Fc with L79Y, L200S
B17: anti-NGF feline IgG1a, Fc variant S428L, E380D, S434R (antibody, part only; not given: Anti-NGF variable domains, not shown: another chain or arm of the molecule; small tags and cut ends)
Fc: B1 Fc with E150D, S206R
B18: anti-NGF feline IgG1a, Fc variant R301L (antibody, part only; not given: anti-NGF variable domains, not shown: another chain or arm of the molecule; small tags and cut ends)
Fc: B1 Fc with R71L, L200S
B19: anti-NGF feline IgG1a, Fc variant R392E (antibody, part only; not given: anti-NGF variable domains, light chain, not shown: another chain or arm of the molecule; small tags and cut ends)
Fc: B1 Fc with R164E, L200S
B20: anti-NGF feline IgG1a, Fc variant S290Y (antibody, part only; not given: anti-NGF variable domains, not shown: another chain or arm of the molecule; small tags and cut ends)
Fc: B1 Fc with S60Y, L200S
B21: anti-NGF feline IgG1a, Fc variant Q311R (antibody, part only; not given: Anti-NGF variable domains, not shown: another chain or arm of the molecule; small tags and cut ends)
Fc: B1 Fc with Q81R, L200S
B22: anti-NGF feline IgG1a, Fc variant S428L, I383L (antibody, part only; not given: anti-NGF variable domains, light chain, not shown: another chain or arm of the molecule; small tags and cut ends)
Fc: B1 Fc with I153L
B23: anti-NGF feline IgG1a, Fc variant S426H (antibody, part only; not given: anti-NGF variable domains, not shown: another chain or arm of the molecule; small tags and cut ends)
Fc: B1 Fc with S198H, L200S
B24: anti-NGF feline IgG1a, Fc variant N389c-R (antibody, part only; not given: anti-NGF variable domains, not shown: another chain or arm of the molecule; small tags and cut ends)
Fc: B1 Fc with N161R, L200S
B25: anti-NGF feline IgG1a with wild-type Fc (antibody, part only; not given: anti-NGF variable domains, not shown: another chain or arm of the molecule; small tags and cut ends)
Fc: B1 Fc with L200S
B26: anti-NGF feline IgG1a, Fc variant I377Y (antibody, part only; not given: anti-NGF variable domains, not shown: another chain or arm of the molecule; small tags and cut ends)
Fc: B1 Fc with I147Y, L200S
B27: anti-NGF feline IgG1a, Fc variant S428L, Q311V (antibody, part only; not given: Anti-NGF variable domains, not shown: another chain or arm of the molecule; small tags and cut ends)
Fc: B1 Fc with Q81V
B28: anti-NGF feline IgG1a, Fc variant S428L, Q311K (antibody, part only; not given: anti-NGF variable domains, light chain, not shown: another chain or arm of the molecule; small tags and cut ends)
Fc: B1 Fc with Q81K
B29: anti-NGF feline IgG1a, Fc variant S290V, R334D (antibody, part only; not given: anti-NGF variable domains, light chain, not shown: another chain or arm of the molecule; small tags and cut ends)
Fc: B1 Fc with S60V, R104D, L200S
B30: anti-NGF feline IgG1a, Fc variant K326D (antibody, part only; not given: anti-NGF variable domains, not shown: another chain or arm of the molecule; small tags and cut ends)
Fc: B1 Fc with K96D, L200S
B31: anti-NGF feline IgG1a, Fc variant S252R, L262Q (antibody, part only; not given: anti-NGF variable domains, light chain, not shown: another chain or arm of the molecule; small tags and cut ends)
Fc: B1 Fc with S22R, L32Q, L200S
B32: anti-NGF feline IgG1a, Fc variant S428L, E380T, S434R (antibody, part only; not given: anti-NGF variable domains, not shown: another chain or arm of the molecule; small tags and cut ends)
Fc: B1 Fc with E150T, S206R
B33: anti-NGF feline IgG1a, Fc variant S252R, A378E (antibody, part only; not given: Anti-NGF variable domains, not shown: another chain or arm of the molecule; small tags and cut ends)
Fc: B1 Fc with S22R, A148E, L200S
B34: anti-NGF feline IgG1a, Fc variant Q311V (antibody, part only; not given: anti-NGF variable domains, light chain, not shown: another chain or arm of the molecule; small tags and cut ends)
Fc: B1 Fc with Q81V, L200S
B35: anti-NGF feline IgG1a, Fc variant S428L, T286E (antibody, part only; not given: anti-NGF variable domains, not shown: another chain or arm of the molecule; small tags and cut ends)
Fc: B1 Fc with T56E
B36: anti-NGF feline IgG1a, Fc variant Q311L (antibody, part only; not given: anti-NGF variable domains, light chain, not shown: another chain or arm of the molecule; small tags and cut ends)
Fc: B1 Fc with Q81L, L200S
B37: anti-NGF feline IgG1a, Fc variant R301L, E380V, T437L (antibody, part only; not given: anti-NGF variable domains, light chain, not shown: another chain or arm of the molecule; small tags and cut ends)
Fc: B1 Fc with R71L, E150V, L200S, T209L
B38: anti-NGF feline IgG1a, Fc variant S428L, S252R (antibody, part only; not given: anti-NGF variable domains, not shown: another chain or arm of the molecule; small tags and cut ends)
Fc: B1 Fc with S22R
B39: anti-NGF feline IgG1a, Fc variant S428L, I377V (antibody, part only; not given: anti-NGF variable domains, not shown: another chain or arm of the molecule; small tags and cut ends)
Fc: B1 Fc with I147V
B40: anti-NGF feline IgG1a, Fc variant T286D (antibody, part only; not given: anti-NGF variable domains, not shown: another chain or arm of the molecule; small tags and cut ends)
Fc: B1 Fc with T56D, L200S

Substitutions are numbered along the chain they refer to. Numbers in names are those of the source.

The text below walks through data of US20250304650A1.

The target of this experiment is feline FcRn (FCN-F82W3, Acrobiosystems) (feline). In words: SPR Carterra, IgG coupled, pH 6.0.
B1 gave a Kd of 16.7 nM, a koff of 0.0241 s⁻¹ and a kon of 1.45e+06 M⁻¹ s⁻¹.
Taken in the same sequence, the figures for B2 were 47.3 nM, 0.0283 s⁻¹ and 598000 M⁻¹ s⁻¹.
Taken in the same sequence, the figures for B3 were 133 nM, 0.0561 s⁻¹ and 423000 M⁻¹ s⁻¹.
With B4, the Kd was 81.7 nM, the koff was found to be 0.0493 s⁻¹ and the kon is 603000 M⁻¹ s⁻¹.
Taken in the same sequence, the figures for B5 were 93.4 nM, 0.0457 s⁻¹ and 489000 M⁻¹ s⁻¹.
For B6 the same measures were 146 nM, 0.0665 s⁻¹ and 455000 M⁻¹ s⁻¹.
For B7 the same measures were 11.2 nM, 0.0113 s⁻¹ and 1.01e+06 M⁻¹ s⁻¹.
B8: the Kd amounted to 107 nM, the koff was 0.0557 s⁻¹ and the on-rate constant (kon) was determined as 521000 M⁻¹ s⁻¹.
Taken in the same sequence, the figures for B9 were 102 nM, 0.0415 s⁻¹ and 406000 M⁻¹ s⁻¹.
For B10 the same measures were 159 nM, 0.0618 s⁻¹ and 389000 M⁻¹ s⁻¹.
Taken in the same sequence, the figures for B11 were 9.9 nM, 0.00977 s⁻¹ and 983000 M⁻¹ s⁻¹.
With B12, the Kd was found to be 116 nM, the off-rate constant (koff) was 0.062 s⁻¹ and the kon amounted to 533000 M⁻¹ s⁻¹.
Taken in the same sequence, the figures for B13 were 127 nM, 0.045 s⁻¹ and 353000 M⁻¹ s⁻¹.
In turn, B14 gave a Kd of 9.6 nM, a koff of 0.0109 s⁻¹ and a kon of 1.14e+06 M⁻¹ s⁻¹.
For B15 the same measures were 157 nM, 0.0853 s⁻¹ and 544000 M⁻¹ s⁻¹.
For B16 the same measures were 196 nM, 0.118 s⁻¹ and 600000 M⁻¹ s⁻¹.
For B17 the same measures were 8 nM, 0.00973 s⁻¹ and 1.22e+06 M⁻¹ s⁻¹.
Regarding B18, the Kd came to 95.2 nM, the koff came out at 0.0435 s⁻¹ and the kon amounted to 457000 M⁻¹ s⁻¹.
Taken in the same sequence, the figures for B19 were 24.5 nM, 0.0324 s⁻¹ and 1.33e+06 M⁻¹ s⁻¹.
The molecule B20 displayed a Kd of 128 nM, a koff of 0.0849 s⁻¹ and a kon of 661000 M⁻¹ s⁻¹.
For B21 the same measures were 59.2 nM, 0.0116 s⁻¹ and 196000 M⁻¹ s⁻¹.
For B22 the same measures were 9.9 nM, 0.0162 s⁻¹ and 1.63e+06 M⁻¹ s⁻¹.
For B23 the same measures were 171 nM, 0.0602 s⁻¹ and 352000 M⁻¹ s⁻¹.
In turn, B24 displayed a Kd of 188 nM, a dissociation rate constant (koff) of 0.0944 s⁻¹ and a kon of 502000 M⁻¹ s⁻¹.
As to B25, the Kd is 233 nM, the koff stood at 0.11 s⁻¹ and the association rate constant (kon) came to 472000 M⁻¹ s⁻¹.
Taken in the same sequence, the figures for B26 were 61.4 nM, 0.0514 s⁻¹ and 837000 M⁻¹ s⁻¹.
For B27 the same measures were 11.7 nM, 0.0107 s⁻¹ and 916000 M⁻¹ s⁻¹.
For B28 the same measures were 10.5 nM, 0.0101 s⁻¹ and 958000 M⁻¹ s⁻¹.
Regarding B29, the Kd is 10.7 nM, the koff was determined as 0.00997 s⁻¹ and the kon came out at 931000 M⁻¹ s⁻¹.
For B30 the same measures were 136 nM, 0.0584 s⁻¹ and 428000 M⁻¹ s⁻¹.
For B31 the same measures were 4.9 nM, 0.00795 s⁻¹ and 1.63e+06 M⁻¹ s⁻¹.
For B32 the same measures were 3.8 nM, 0.012 s⁻¹ and 3.17e+06 M⁻¹ s⁻¹.
Consider B33, for which the Kd was 35.3 nM, the koff worked out at 0.00927 s⁻¹ and the on-rate constant (kon) is 262000 M⁻¹ s⁻¹.
For B34 the same measures were 80.4 nM, 0.0505 s⁻¹ and 629000 M⁻¹ s⁻¹.
For B35 the same measures were 8.6 nM, 0.00987 s⁻¹ and 1.15e+06 M⁻¹ s⁻¹.
Taken in the same sequence, the figures for B36 were 88.2 nM, 0.0499 s⁻¹ and 565000 M⁻¹ s⁻¹.
In turn, B37 gave a Kd of 10.7 nM, a koff of 0.0123 s⁻¹ and an on-rate constant (kon) of 1.15e+06 M⁻¹ s⁻¹.
For B38 the same measures were 9 nM, 0.00873 s⁻¹ and 974000 M⁻¹ s⁻¹.
For B39 the same measures were 10.8 nM, 0.0183 s⁻¹ and 1.69e+06 M⁻¹ s⁻¹.
Taken in the same sequence, the figures for B40 were 97.4 nM, 0.0389 s⁻¹ and 400000 M⁻¹ s⁻¹.
